Here are results for six molecules from publication PMC3608606, “Arabidopsis DEAD-Box RNA Helicase UAP56 Interacts with Both RNA and DNA as well as with mRNA Export Factors”.

For data set [1], the target named is T1, UAP56 (Arabidopsis thaliana, UniProt Q56XG6 1-427).
T1 sequence: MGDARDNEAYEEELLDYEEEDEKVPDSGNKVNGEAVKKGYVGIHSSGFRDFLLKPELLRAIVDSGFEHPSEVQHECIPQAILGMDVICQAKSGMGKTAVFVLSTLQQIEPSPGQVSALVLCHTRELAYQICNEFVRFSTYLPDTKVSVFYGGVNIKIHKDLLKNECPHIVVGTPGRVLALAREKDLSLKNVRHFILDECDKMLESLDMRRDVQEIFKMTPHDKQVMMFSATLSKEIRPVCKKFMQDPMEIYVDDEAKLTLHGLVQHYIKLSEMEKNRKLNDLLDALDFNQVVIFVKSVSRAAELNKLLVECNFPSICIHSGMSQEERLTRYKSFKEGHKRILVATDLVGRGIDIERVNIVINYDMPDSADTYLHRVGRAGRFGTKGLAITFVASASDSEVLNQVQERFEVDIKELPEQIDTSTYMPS
In words: MST; MST: 50 nM labelled oligonucleotide in EMSA buffer (composition cited, ref 44), 28 C, Hill fit; EMSA: 32P probe, PAGE, same cited protocol; salt and pH not given. The note with it: protein: recombinant; tags: 6xHis (pQE9); label: fluorescent; blunt. On the technique in general: A gel shift assay detects complexes by their altered migration in electrophoresis.

Data set [2] concerns the target T2, Df31 (Decondensation Factor 31) (Drosophila, UniProt O16043 1-183).
T2 sequence: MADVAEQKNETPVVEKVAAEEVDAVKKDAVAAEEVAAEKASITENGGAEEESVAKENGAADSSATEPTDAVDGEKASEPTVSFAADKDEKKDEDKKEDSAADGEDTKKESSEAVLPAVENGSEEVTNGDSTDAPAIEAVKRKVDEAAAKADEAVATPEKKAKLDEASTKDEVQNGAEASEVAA
In words: MST; up to 411 uM protein; MST: 50 nM labelled oligonucleotide in EMSA buffer (composition cited, ref 44), 28 C, Hill fit; EMSA: 32P probe, PAGE, same cited protocol; salt and pH not given. The note with it: protein: recombinant; label: fluorescent; blunt.

Data set [3] has as its target T3, GST-UAP56 (Arabidopsis thaliana (Mouse-ear cress), UniProt Q9LFN6).
T3 chain: T1 sequence
In words: GST pull-down; ATP present.

In data set [4] the target is T1, UAP56. In words: EMSA; 0.25-5 uM protein; two complexes; less efficient than RNA; MST: 50 nM labelled oligonucleotide in EMSA buffer (composition cited, ref 44), 28 C, Hill fit; EMSA: 32P probe, PAGE, same cited protocol; salt and pH not given. The note with it: protein: recombinant; tags: 6xHis (pQE9); label: 32P; blunt.
Data set [5] addresses T1, UAP56. In words: EMSA; 0.25-5 uM protein; single complex; MST: 50 nM labelled oligonucleotide in EMSA buffer (composition cited, ref 44), 28 C, Hill fit; EMSA: 32P probe, PAGE, same cited protocol; salt and pH not given. The note with it: protein: recombinant; tags: 6xHis (pQE9); label: 32P; blunt.

B1: R29ds (dsRNA)
RNA 1: CCUCCUUUUUUCUUUUUUUUUUUUUUUCU
RNA 2: AGAAAAAAAAAAAAAAAGAAAAAAGGAGG
As usually defined, the Kd is a measure of binding affinity in units of concentration. For the molecule B1, the Kd in data set [1] stood at 51.5 ± 5.3 µM.

B2: D29ds (dsDNA)
DNA 1: CCTCCTTTTTTCTTTTTTTTTTTTTTTCT
DNA 2: AGAAAAAAAAAAAAAAAGAAAAAAGGAGG
For B2, the Kd in data set [1] was 6.5 ± 0.75 µM. Also, in data set [2], the binding result is “no binding”.

B3: 6xHis-MOS11 (protein)
chain: MATNGEKVTATVVNGGGLSTGENPKKIVDLNTTELDRTDDILDGEVKGFSDSGEKKEETDSNGIGSTAGVDSGDISPVDDIQKKIRRAERFGVSVKLTEEEKRNSRAERFGTVAAAVVNGSEGTKKAEELKRKARADRFGVPSATSTTDKTEEEAKKKARLARFGKETKVDSAEENKRKARALRFSKEASADASSDLPEKQIIGKEAAVSGSAA
As for B3, the binding result in data set [3] is “binds”.

B4: 6xHis-HMGB2 (protein)
chain: MKGAKSKTETRSSKLSVTKKPAKGAGRGKAAAKDPNKPKRPASAFFVFMEDFRETFKKENPKNKSVATVGKAAGDKWKSLSDSEKAPYVAKAEKRKVEYEKNIKAYNKKLEEGPKEDEESDKSVSEVNDEDDAEDGSEEEEDDD
On to B4, for which the binding result in data set [3] is recorded as “no binding”.

B5: D25ds (dsDNA)
DNA 1: AAAACAAAATAGCACCGTAAAGCAC
DNA 2: GTGCTTTACGGTGCTATTTTGTTTT
B5: the binding result in data set [4] was “binds”.

B6: R25ds (dsRNA)
RNA 1: AAAACAAAAUAGCACCGUAAAGCAC
RNA 2: GUGCUUUACGGUGCUAUUUUGUUUU
Turning to B6, the binding result in data set [5] is “binds”.
